Paper PMC4456216 (Nature structural & molecular biology, 2015)

B1: BMAL2 transactivation domain (TAD), residues 540-579 (domain or fragment, mouse, UniProt Q2VPD4 540-579, looked up)
chain: LGFDVLCDSDSIDMAAFMNYLEAEGGLGDPGDFSDIQWAL

How the values were obtained:
[1] = molecular target: p300 KIX domain (residues 565-653) (mouse, UniProt B2RWS6 565-653); test: NMR titration
[2] = molecular target: B1; test: ITC

Sequence of p300 KIX domain (residues 565-653) (B2RWS6 565-653): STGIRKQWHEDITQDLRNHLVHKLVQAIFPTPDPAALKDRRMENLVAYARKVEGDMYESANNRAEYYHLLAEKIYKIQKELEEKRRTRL

Row | Binder | binding result [1] | stoichiometry N [2]
1 | B1 | binds | 
2 | mouse CBP KIX domain (domain or fragment) not shown |  | 0.7
3 | MVNHAEASRLNIERMKQIYQQLSRYRGLGLLASV [mouse CRY1 CC peptide (residues 470-503)] |  | 0.7
